Results taken from US5770410A, “Chiral synthesis with modified enzymes” (Genzyme Corporation, priority 1992, dated 1998).

Key:
Assay in all cases: Steady-state kinetics, NADH-dependent reduction of 2-oxo acids (A340)
[1] = substrate: O=C(O)C(=O)CCc1ccccc1; type: biochemical, Bacillus stearothermophilus; settings: other: +FBP (5 mM), 25° C., pH 6
Method: (§1) Overnight cultures (11) were centrifuged and the packed cells were resuspended in 50 mM triethanolamine, pH 6.0. The cells were sonicated and the debris was removed by centrifugation. The protein in the supernatant was precipitated by the addition of 65% ammonium sulphate. The precipitate was spun down and resuspended in 50 mM triethanolamine, pH 6.0 and dialysed against the same buffer. After dialysis, NADH and FBP were added to the protein to final concentrations of 5 mM and 10 mM before loading onto an oxamate Sepharose column which had been pre-equilibrated with 50 mM triethanoloamine, pH 6.0, 3 mM NADH and 5 mM FBP. After washing off unbound protein with column buffer mutant LDH was eluted with 50 mM triethanolamine, pH 9.0, 0.3 M NaCl. The elutant was precipitated with 65% ammonium sulphate and then resuspended in and dialysed against 50 mM triethanolamine, pH 7.5. The protein was then loaded onto a Q-Sepharose Fast Flow column and eluted with a salt gradient. LDH eluted at a concentration of 0.25M NaCl. For the double glycine mutant enzyme, the first chromatography procedure with oxamate Sepharose was replaced by chromatography on Blue Sepharose -F3GA, otherwise the procedure was essentially the same. All proteins were judged to be greater than 98% pure from the intensity of Coomassie blue staining on an SDS Phast gel (Pharmacia). The yield of protein was usually 0.2 g/l of original broth.
(§2) Steady-state measurements were made by following the reduction in absorbance at 340 nm in the NADH/NAD^+ conversion. All assays were at 25° C. in the buffer Bis-Tris, pH 6, (20 mM), containing KC1 (50 mM) and when used fructose-1,6-bisphosphate at 5 mM. Protein concentration was determined from the absorbance at 280 nm using the value of 0.91 for 1 mg/ml protein in 1 cm path and an Mr of 33,000.
(§3) The specific substrates used in the evaluations are shown in the left column of Table 4. In Table 4, "235/6GG" denotes the mutant enzyme formed by substituting GlyGly for AlaAla at the 235-236 positions of the enzyme (Wilks et al., Biochemistry 1990, 29, 8587-8591), and "WTrs" denotes a mutant derived from the wild-type strain as shown in FIG. 1 of Wilks et al., Biochemistry 1992, 31, 7802-7806.

[2] = substrate: O=C(O)C(=O)Cc1ccccc1; type: biochemical, Bacillus stearothermophilus; settings: other: +FBP (5 mM), 25° C., pH 6
Method: as §1, §2, §3

[3] = substrate: CC(=O)C(=O)O; type: biochemical, Bacillus stearothermophilus; settings: other: -FBP, 25° C., pH 6
Method: as §1, §2, §3

[4] = substrate: O=C(O)C(=O)CCc1ccccc1; type: biochemical; settings: 25° C., pH 6
Excerpt: (§4) Mutants were identified by making mini-preps and restricting with SacII and XbaI. Mutant mini-preps were restricted with EcoRI and XhoI and the small fragment was subcloned into PKK223-3 containing Ala235Gly, Ala236Gly mutant LDH from which the small EcoRI/XhoI fragment had been removed (Wilks et al. Biochemistry, 1990, 29, 8587). The resulting plasmid (pLDHrs) was transformed into competent E. coli TG2 cells.
as §1, §2, §3

[5] = substrate: CC(C)CC(=O)C(=O)O; type: biochemical; settings: other: -FBP, 25° C., pH 6
Excerpt: as §4, §1, §2, §3

[6] = substrate: O=C(O)C(=O)Cc1ccccc1; type: biochemical; settings: 25° C., pH 6
Excerpt: as §4, §1, §2, §3

[7] = substrate: CCCCC(=O)C(=O)O; type: biochemical; settings: other: -FBP, 25° C., pH 6
Excerpt: as §4, §1, §2, §3

[8] = substrate: CC(=O)C(=O)O; type: biochemical; settings: other: -FBP, 25° C., pH 6
Excerpt: as §4, §1, §2, §3

| Protein | Km [1] [mM] | kcat [1] [s⁻¹] | kcat/Km [1] [M⁻¹ s⁻¹] | Km [2] [mM] | kcat [2] [s⁻¹] | kcat/Km [2] [M⁻¹ s⁻¹] | Km [3] [mM] | kcat [3] [s⁻¹] | kcat/Km [3] [M⁻¹ s⁻¹] | Km ([4]; other: +FBP (5 mM)) [mM] | kcat ([4]; other: +FBP (5 mM)) [s⁻¹] | kcat/Km ([4]; other: +FBP (5 mM)) [M⁻¹ s⁻¹] | Km ([4]; other: -FBP) [mM] | Km [5] [mM] | Km ([6]; other: +FBP (5 mM)) [mM] | kcat ([6]; other: +FBP (5 mM)) [s⁻¹] | kcat/Km ([6]; other: +FBP (5 mM)) [M⁻¹ s⁻¹] | Km ([6]; other: -FBP) [mM] | Km [7] [mM] | Km [8] [mM] |
| --- | --- | --- | --- | --- | --- | --- | --- | --- | --- | --- | --- | --- | --- | --- | --- | --- | --- | --- | --- | --- |
| Bacillus stearothermophilus lactate dehydrogenase, wild type, SEQ ID NO: 3 (Geobacillus stearothermophilus) (protein, made in house; host or cells: E. coli) MKNNGGARVVVIGAGFVGASYVFALMNQGIADEIVLIDANESKAIGDAMDFNHGKVFAPKPVDIWHGDYDDCRDADLVVICAGANQKPGETRLDLVDKNIAIFRSIVESVMASGFQGLFLVATNPVDILTYATWKFSGLPHERVIGSGTILDTARFRFLLGEYFSVAPQNVHAYIIGEHGDTELPVWSQAYIGVMPIRKLVESKGEEAQKDLERIFVNVRDAAYQIIEKKGATYYGIAMGLARVTRAILHNENAILTVSAYLDGLYGERDVYIGVPAVINRNGIREVIEIELNDDEKNRFHHSAATLKSVLARAFTR | 0.6 | 6 | 10000 | 1.8 | 32.7 | 18000 | 2 | 250 | 50000 |  |  |  |  |  |  |  |  |  |  |  |
| Bacillus stearothermophilus lactate dehydrogenase mutant WTrs (restriction-site construct pLDHrs, Cys97Thr, Ala235Gly, Ala236Gly; loop SEQ ID No 7) … (protein, made in house; host or cells: E. coli TG2) MKNNGGARVVVIGAGFVGASYVFALMNQGIADEIVLIDANESKAIGDAMDFNHGKVFAPKPVDIWHGDYDDCRDADLVVITAGANQKPGETRLDLVDKNIAIFRSIVESVMASGFQGLFLVATNPVDILTYATWKFSGLPHERVIGSGTILDTARFRFLLGEYFSVAPQNVHAYIIGEHGDTELPVWSQAYIGVMPIRKLVESKGEEAQKDLERIFVNVRDGGYQIIEKKGATYYGIAMGLARVTRAILHNENAILTVSAYLDGLYGERDVYIGVPAVINRNGIREVIEIELNDDEKNRFHHSAATLKSVLARAFTR |  |  |  |  |  |  |  |  |  | 4 | 6 | 1500 | 12 | 28 | 6 | 58 | 9600 | 21 | 30 | 100 |
| Bacillus stearothermophilus lactate dehydrogenase mutant 235/6GG (Ala235Gly, Ala236Gly) (Geobacillus stearothermophilus; A222G/A223G) (protein, made in house; host or cells: E. coli) MKNNGGARVVVIGAGFVGASYVFALMNQGIADEIVLIDANESKAIGDAMDFNHGKVFAPKPVDIWHGDYDDCRDADLVVICAGANQKPGETRLDLVDKNIAIFRSIVESVMASGFQGLFLVATNPVDILTYATWKFSGLPHERVIGSGTILDTARFRFLLGEYFSVAPQNVHAYIIGEHGDTELPVWSQAYIGVMPIRKLVESKGEEAQKDLERIFVNVRDGGYQIIEKKGATYYGIAMGLARVTRAILHNENAILTVSAYLDGLYGERDVYIGVPAVINRNGIREVIEIELNDDEKNRFHHSAATLKSVLARAFTR | 13 | 7 | 538 | 4.5 | 53.4 | 12000 |  |  |  |  |  |  |  |  |  |  |  |  |  |  |
